Experimental data as given in patent US20250051464A1 (IMMUNOME, published 2025).
One block for each binder: values may come before it.

Assays:
[1] = molecular target: T1, human EphA2 (ephrin receptor A2), on cells (human, UniProt P29317 24-976); assay: flow cytometry binding on A549 cells
T1 construct: Used for HEK293 transfectants, A549 and other human tumor cell lines
Method: (§1) Surface binding of the antibodies to in vitro grown cell lines was assessed by flow cytometry. Tumor cells were detached from their culture plate using Versene and counted. Cells were staining in BSA-containing buffer with primary antibody for 30 minutes at 4° C. with shaking. Following, cells were washed and stained with secondary PE-labeled antibody for 30 minutes at 4° C. with shaking. Before analysis on an Intellicyt iQue3 scanner, cells were counterstained with DAPI. MedFI values from live, single cells was expressed as fold over isotype control.

[2] = molecular target: T1, human EphA2 (ephrin receptor A2), on …; assay: flow cytometry binding on A549 cells, MedFI
Method: as §1

[3] = molecular target: T2, hEphA2-FN2-(437-534)-Fc (human, UniProt P29317 437-534); assay: SPR Biacore, 25 C, EphA2-Fc captured by anti-human Fc, Fab as analyte, 1:1 Langmuir
T2 construct: Captured by anti-human Fc on a CM5 chip; also called FN2 domain of EphA2 fused to human Fc
Method: (§2) The hEphA2-Fc fusions were captured with an anti-human Fc immobilized to a CM5 chip. Biacore® assays were conducted at 25° C. using HBS-EP+ buffer (0.01 M HEPES pH 7.4, 0.15 M NaCl, 3 mM EDTA, 0.005% v/v Surfactant P20). Data was double-reference subtracted and data was analyzed using 1:1 Langmuir binding model and steady-state model in Biacore Evaluation software.
(§3) Binding to hEphA2-ECD-Fc tested using 100, 300, and 900 nM analyte. Binding to all other ligands tested using 33.3, 100, and 300 nM analyte.

[4] = molecular target: T3, hEphA2-clv435-534-Fc (human, UniProt P29317 435-534); assay: as above
T3 construct: Recombinant fragment representing a cleavage form
Method: as §2, §3

[5] = molecular target: T4, hEphA2-clv395-534-Fc (human, UniProt P29317 395-534); assay: as above
T4 construct: Recombinant fragment representing a cleavage form
Method: as §2, §3

[6] = molecular target: T5, hEphA2-clv432-534-Fc (human, UniProt P29317 432-534); assay: as above
T5 construct: Recombinant fragment representing a cleavage form
Method: as §2, §3

[7] = molecular target: T6, hEphA2-FN12-(327-534)-Fc (human, UniProt P29317 327-534); assay: as above
T6 construct: Captured by anti-human Fc on a CM5 chip; also called FN1-FN2 domains of EphA2 fused to human Fc
Method: as §2, §3

[8] = molecular target: T7, hEphA2-clv385-534-Fc (human, UniProt P29317 385-534); assay: as above
T7 construct: Recombinant fragment representing a cleavage form
Method: as §2, §3

[9] = molecular target: T8, Human EphA2 (ephrin receptor A2) (human, UniProt P29317 24-976); assay: IHC/IF score on frozen human tumor tissue, RCC-papillary
T8 construct: Endogenous protein in frozen human tumor tissue and tumor adjacent tissue, not a recombinant construct

[10] = molecular target: T8, Human EphA2 (ephrin receptor A2); assay: IHC/IF score on frozen human tumor tissue, UCEC-endometriod
[11] = molecular target: T8, Human EphA2 (ephrin receptor A2); assay: IHC/IF score on frozen human tumor tissue, CRC
[12] = molecular target: T8, Human EphA2 (ephrin receptor A2); assay: IHC/IF score on frozen human tumor tissue, NSCLC-SQ
[13] = molecular target: T8, Human EphA2 (ephrin receptor A2); assay: IHC/IF score on frozen human tumor tissue, PROC
[14] = molecular target: T8, Human EphA2 (ephrin receptor A2); assay: IHC/IF score on frozen human tumor tissue, UCEC-clear cell
[15] = molecular target: T8, Human EphA2 (ephrin receptor A2); assay: IHC/IF score on frozen human tumor tissue, URO
[16] = molecular target: T8, Human EphA2 (ephrin receptor A2); assay: IHC/IF score on frozen human tumor tissue, TNBC
[17] = molecular target: T8, Human EphA2 (ephrin receptor A2); assay: IHC/IF score on frozen human tumor tissue, NSCLC-Adeno
[18] = molecular target: T8, Human EphA2 (ephrin receptor A2); assay: IHC/IF score on frozen human tumor tissue, Her2+ BRC
[19] = molecular target: T8, Human EphA2 (ephrin receptor A2); assay: IHC/IF score on frozen human tumor tissue, ER+ BRC
[20] = molecular target: T8, Human EphA2 (ephrin receptor A2); assay: IHC/IF score on frozen human tumor tissue, PANC
[21] = molecular target: T8, Human EphA2 (ephrin receptor A2); assay: IHC/IF score on frozen human tumor tissue, OVA
[22] = molecular target: T8, Human EphA2 (ephrin receptor A2); assay: IHC/IF score on frozen human tumor tissue, GAC
[23] = molecular target: T8, Human EphA2 (ephrin receptor A2); assay: IHC/IF score on frozen human tumor tissue, STS
[24] = molecular target: T8, Human EphA2 (ephrin receptor A2); assay: IHC/IF score on frozen human tumor tissue, RCC-clear cell
[25] = molecular target: T8, Human EphA2 (ephrin receptor A2); assay: IHC/IF score on frozen human tumor tissue, MELA
[26] = molecular target: T8, Human EphA2 (ephrin receptor A2); assay: IHC/IF score on frozen human tumor tissue, ANC
[27] = molecular target: T8, Human EphA2 (ephrin receptor A2); assay: IHC/IF score on frozen human tumor tissue, UCEC-papillary
[28] = molecular target: T8, Human EphA2 (ephrin receptor A2); assay: IHC/IF score on frozen human tumor tissue, HNC
[29] = molecular target: T8, Human EphA2 (ephrin receptor A2); assay: IHC/IF score on frozen human tumor tissue, ESC
[30] = molecular target: T9, C-terminally His-tagged hEphA2-FN2 (Thr437-Asn534+His tag) (human, UniProt P29317 437-534); assay: SPR Biacore T200, 25 C, mIgG2a as ligand, FN2-His as analyte, 1:1 Langmuir
T9 construct: SPR analyte; also called FN2 domain of hEphA2
Method: Binding of EphA2 antibodies to the FN2 domain of hEphA2 was measured using the Biacore® T200 SPR system. Biacore® assays were conducted at 25° C. using HBS-EP+ buffer (0.01 M HEPES pH 7.4, 0.15 M NaCl, 3 mM EDTA, 0.005% v/v Surfactant P20) using the FN2 domain as the analyte with the antibodies in mIgG2a format as the immobilized ligand. Data was analyzed using 1:1 Langmuir binding model and steady-state model in Biacore Evaluation software.
C-terminally His-tagged human EphA2 FN2 domain (Thr437-Asn534+His tag) was used as the analyte. The analyte was associated for 120 seconds and dissociated for 100 seconds or 300 seconds at 30 uL/min.

[31] = molecular target: T9, C-terminally His-tagged hEphA2-FN2 …; assay: SPR Biacore T200, 25 C, mIgG2a captured by anti-mouse Fc, FN2-His as analyte, steady-state fit, monovalent
Method: Binding of antibodies to the FN2 domain of hEphA2 was measured using the Biacore® T200 SPR system at 25° C. using HBS-EP+ buffer (0.01 M HEPES pH 7.4, 0.15 M NaCl, 3 mM EDTA, 0.005% v/v Surfactant P20). Antibodies in mIgG2a format were captured at levels between 475-715 RU via an anti-mouse Fc antibody immobilized to a CM5 chip. Binding was assessed using a titration of C-terminally His-tagged hEphA2-FN2 (Thr437-Asn534+His tag) associated for 30 s or 75 s at 30 uL/min. Data was double-reference subtracted using both a surface without captured antibody and from injections of HBS-EP+ buffer. The equilibrium response was measured at 4 seconds before the end of association with a window of 5 seconds and fit using the Biacore T200 Evaluation Software 3.1 with the Steady State Affinity Model.

[32] = molecular target: T1, human EphA2 (ephrin receptor A2), on …; assay: flow cytometry on A549 cells, EC50 column
[33] = molecular target: T1, human EphA2 (ephrin receptor A2), on …; assay: flow cytometry on A549 cells
Method: as §1

T1 sequence (P29317 24-976 limits assumed): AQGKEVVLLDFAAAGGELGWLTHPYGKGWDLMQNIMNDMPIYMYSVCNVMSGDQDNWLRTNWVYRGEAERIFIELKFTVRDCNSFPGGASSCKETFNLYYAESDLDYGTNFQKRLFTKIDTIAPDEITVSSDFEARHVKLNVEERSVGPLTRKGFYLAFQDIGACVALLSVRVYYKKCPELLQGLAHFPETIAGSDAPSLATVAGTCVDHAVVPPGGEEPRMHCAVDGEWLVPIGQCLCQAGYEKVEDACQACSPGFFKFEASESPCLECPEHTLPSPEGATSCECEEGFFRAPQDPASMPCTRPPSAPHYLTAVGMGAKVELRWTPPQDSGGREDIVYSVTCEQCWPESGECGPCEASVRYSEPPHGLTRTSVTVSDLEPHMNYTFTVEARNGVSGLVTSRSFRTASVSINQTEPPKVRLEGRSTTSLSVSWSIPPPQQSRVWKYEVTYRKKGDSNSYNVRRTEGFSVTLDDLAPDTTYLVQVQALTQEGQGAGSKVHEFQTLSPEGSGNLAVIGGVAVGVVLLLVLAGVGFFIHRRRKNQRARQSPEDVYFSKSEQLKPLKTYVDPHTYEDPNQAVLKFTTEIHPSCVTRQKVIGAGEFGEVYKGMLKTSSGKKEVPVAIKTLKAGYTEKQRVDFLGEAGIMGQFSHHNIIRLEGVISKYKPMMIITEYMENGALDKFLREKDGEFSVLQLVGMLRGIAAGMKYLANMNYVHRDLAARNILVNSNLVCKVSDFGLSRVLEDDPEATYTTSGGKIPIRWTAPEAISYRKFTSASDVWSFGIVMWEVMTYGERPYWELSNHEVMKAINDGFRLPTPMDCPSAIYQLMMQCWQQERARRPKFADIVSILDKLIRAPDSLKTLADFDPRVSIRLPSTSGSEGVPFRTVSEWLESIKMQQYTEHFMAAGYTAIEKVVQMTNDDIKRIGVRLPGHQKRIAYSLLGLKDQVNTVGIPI
T8 sequence (P29317 24-976 limits assumed): as above
T7 sequence (P29317 385-534): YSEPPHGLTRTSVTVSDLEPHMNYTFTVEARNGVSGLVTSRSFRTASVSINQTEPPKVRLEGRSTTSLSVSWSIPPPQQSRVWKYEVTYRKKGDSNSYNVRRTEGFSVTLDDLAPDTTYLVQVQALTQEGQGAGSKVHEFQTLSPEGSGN
T2 sequence (P29317 437-534): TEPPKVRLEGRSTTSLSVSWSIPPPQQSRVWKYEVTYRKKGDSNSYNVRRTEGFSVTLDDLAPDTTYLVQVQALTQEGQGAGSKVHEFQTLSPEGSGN
T9 sequence (P29317 437-534 limits assumed): as the sequence (P29317 437-534) above
T4 sequence (P29317 395-534): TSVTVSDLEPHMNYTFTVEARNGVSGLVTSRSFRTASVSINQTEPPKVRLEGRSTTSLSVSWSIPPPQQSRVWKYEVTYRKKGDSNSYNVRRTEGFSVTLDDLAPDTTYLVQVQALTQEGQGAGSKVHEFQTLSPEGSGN
T6 sequence (P29317 327-534): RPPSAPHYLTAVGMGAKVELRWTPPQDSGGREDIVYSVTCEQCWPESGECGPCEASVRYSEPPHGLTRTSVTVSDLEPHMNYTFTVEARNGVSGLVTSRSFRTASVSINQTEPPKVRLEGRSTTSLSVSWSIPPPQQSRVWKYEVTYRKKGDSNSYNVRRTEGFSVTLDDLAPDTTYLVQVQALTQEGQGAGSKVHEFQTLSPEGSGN
T3 sequence (P29317 435-534): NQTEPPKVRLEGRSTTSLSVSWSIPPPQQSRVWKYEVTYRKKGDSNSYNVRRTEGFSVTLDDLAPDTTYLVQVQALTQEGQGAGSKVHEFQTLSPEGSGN
T5 sequence (P29317 432-534): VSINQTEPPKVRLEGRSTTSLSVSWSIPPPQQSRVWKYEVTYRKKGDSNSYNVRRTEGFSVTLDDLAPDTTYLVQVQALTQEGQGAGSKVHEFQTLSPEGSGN

Kd [3]: 8.6 nM
koff [3]: 0.085 s⁻¹
kon [3]: 1e+07 M⁻¹ s⁻¹
Kd [4]: 9.3 nM
koff [4]: 0.078 s⁻¹
kon [4]: 8.42e+06 M⁻¹ s⁻¹
Kd [5]: 12 nM
koff [5]: 0.07 s⁻¹
kon [5]: 5.72e+06 M⁻¹ s⁻¹
Kd [6]: 9.6 nM
koff [6]: 0.075 s⁻¹
kon [6]: 7.78e+06 M⁻¹ s⁻¹
Kd [7]: 8.6 nM
koff [7]: 0.043 s⁻¹
kon [7]: 5e+06 M⁻¹ s⁻¹
Kd [8]: 12 nM
koff [8]: 0.072 s⁻¹
kon [8]: 6.05e+06 M⁻¹ s⁻¹
B2: AB-010699 human Fab fragment (Fab, V domains shown)
VH: QVQLQQWGAGLLKPSETLSLTCAVYGGSFSGYYWSWIRQPPGKGLEWIGEINHRGSINYNNYNPSLKSRVTISVDTSKNQFSLKLSSVTAADTAVYYCAKPLRPHCINGVCYSGDAFDIWGQGTMVTVAS
VL: SYVLTQPPSVSVAPGQTARITCGGNNIGYKNVHWYQQKPGQAPVLVVYDDSDRPSGIPERFSGSNSGNTATLTISRVEAGDEADYYCQVWDHSSDHVVFGGGTKLTVL
notes: Human Fab fragment

binding result [32]: no binding
Delta (flow) [33]: 0
B5: AB-009817 (antibody, mouse IgG2a, V domains shown)
VH: QVQLQQWGAGLLKPSETLSLTCAVYGGSFSDYYWSWIRQPPGKGLEWIGEVNHRGSINYNNYNPSLKSRVTISVDPSKNQFSLKLTSVTAADTAVYYCAKPLRPHCTNAVCYSGDAFDIWGQGTMVTVAS
VL: SYVLTQPPSVSVAPGQTARITCGGNNIGSKNVHWYQQKPGQAPVLVVYDDSDRPSGIPEQFSGSNSGNTATLTISRVEAGDEADYYCQVWDSSSDHLVFGGGTKLTVL

More lines, now with the values behind:

B1: AB-009806 (antibody, mouse IgG2a, V domains shown)
VH: QVQLQQWGAGLLKPSETLSLTCAVYGGSFSDYYWSWIRQPPGKGLEWIGEINHSGSTNYNPSLKSRVTISVDPSKNQFSLKLTSVTAADTAVYYCAKPFRPHCTNGVCYSGDAFDIWGQGTMVTVSS
VL: SYVLTQPPSVSVAPGQTARITCGGNNIGTKNVHWYQQKPGQAPVLVVYDDSDRPSGIPEQFSGSNSGNTATLTISRVEAGDEADYYCQVWDSSSDHLVFGGGTKLTVL
Flow Delta activity (MedFI) [1]: 231000 MedFI
EC50 (read off the curve) [2]: ~20 nM

B3: AB-009816 (antibody, mouse IgG2a, V domains shown)
VH: QVQLQQWGAGLLKPSETLSLTCAVYGGSFSDYYWSWIRQPPGKGLEWIGEVNHRGSINYNNYNPSLKSRVTISVDASKNQFSLKLTSVTAADTAVYYCAKPLRPHCTNGVCYSGDAFDIWGQGTMVTVAS
VL: SYVLTQPPSVSVAPGQTARITCGGNNIGSKNVHWYQQKPGQAPVLVVYDDSDRPSGIPEQFSGSNSGNTATLTISRVEAGDEADYYCQVWDSSSDHLVFGGGTKLTVL
IHC score [9]: 1
IHC score [10]: 1
IHC score [11]: 1
IHC score [12]: 1
IHC score [13]: 1
IHC score [14]: 2
IHC score [15]: 1
IHC score [16]: 1
IHC score [17]: 2
IHC score [18]: 2
IHC score [19]: 1
IHC score [20]: 1
IHC score [21]: 2
IHC score [22]: 2
IHC score [23]: 2
IHC score [24]: 1
IHC score [25]: 2
IHC score [26]: 2
IHC score [27]: 2
IHC score [28]: 2
IHC score [29]: 2

B4: AB-010699 (mIgG2a format) (antibody, V domains shown)
VH: QVQLQQWGAGLLKPSETLSLTCAVYGGSFSGYYWSWIRQPPGKGLEWIGEINHRGSINYNNYNPSLKSRVTISVDTSKNQFSLKLSSVTAADTAVYYCAKPLRPHCINGVCYSGDAFDIWGQGTMVTVAS
VL: SYVLTQPPSVSVAPGQTARITCGGNNIGYKNVHWYQQKPGQAPVLVVYDDSDRPSGIPERFSGSNSGNTATLTISRVEAGDEADYYCQVWDHSSDHVVFGGGTKLTVL
notes: Tested with mouse IgG2a constant regions (mIgG2a format)
Kd [30]: 19 nM
koff [30]: 0.075 s⁻¹
kon [30]: 3.9e+06 M⁻¹ s⁻¹
Kd [31]: 18.9 nM
